We go through 1 protein from publication PMC9315428, “Distinctive in vitro ATP Hydrolysis Activity of AtVIPP1, a Chloroplastic ESCRT-III Superfamily Protein in Arabidopsis” (Frontiers in Plant Science, 2022).

Substrate in this data set: Nc1ncnc2c1ncn2[C@@H]1O[C@H](COP(=O)(O)OP(=O)(O)OP(=O)(O)O)[C@@H](O)[C@H]1O
Description: malachite green (PiColorLock) Pi release, Cornish-Bowden plot. In kind it is biochemical, Arabidopsis thaliana. Particulars: Mg2+ (2.5 mM MgCl2), pH 7.5, 37 °C, 0.5-4.0 mM ATP. An excerpt: malachite green (PiColorLock) Pi release, Cornish-Bowden plot on AtVIPP1-His

B1: AtVIPP1-His (Arabidopsis thaliana) (protein)
chain: MNLFERFSRVVKSYANALISSFEDPEKILEQTVIEMNSDLTKMRQATAQVLASQKQLQNKYKAAQQSSDDWYKRAQLALAKGDEDLAREALKRRKSFADNATALKTQLDQQKGVVDNLVSNTRLLESKIQEAKAKKDTLLARARTAKTATKVQEMIGTVNTSGALSAFEKMEEKVMAMESEADALTQIGTDELEGKFQMLETSSVDDDLADLKKELSGSSKKGELPPGRSTVAASTRYPFKDSEIENELNELRRKANDF
notes: mature protein, N-terminal transit peptide removed, C-terminal His tag kept; E. coli BL21(DE3)pLysS; homo-oligomer (spherical particles 30-50 nm, some rods)
With B1, the Km is given as 3.21 mM.
